Data on three substances can be found in patent publication US20040059519A1.

Several values for one entry are separate records, joined by “and”; a condition that tells them apart may be missing. Equal entries are not always repeated.

Experiment [1] concerns the target Alpha fetoprotein (UniProt P02771). Put plainly: multiplex sandwich, S10473 capture beads; AFP 500 ng/mL, washed.
Experiment [2] shares this target. Nature of the experiment: multiplex sandwich, S10473 capture beads; AFP 2 ng/mL, no wash.
In experiment [3] the target is Human chorionic gonadotropin (human) (UniProt P01215). Nature of the experiment: MAB602 capture beads, flow cytometry; hCG 1000.0 ng/mL, anti-AFP probe.
Experiment [4] deals with Alpha fetoprotein (UniProt P02771). Nature of the experiment: multiplex no-wash sandwich, S10473 beads; Unknown serum, AFP computed 39.59 U/mL.
For experiment [5] the target is unchanged. Nature of the experiment: multiplex sandwich, S10473 capture beads; AFP 250 ng/mL, no wash.
The target in experiment [6] is Neutravidin (deglycosylated avidin) (UniProt P02701). Nature of the experiment: multiplex, Neutravidin bead 70/70 without peptide, flow cytometry. In general terms: In flow cytometry, cells or beads pass a laser one at a time.
For experiment [7] the target is unchanged. Nature of the experiment: multiplex, Neutravidin bead 60/70 without peptide, flow cytometry.
A further experiment addresses Peptide 8 …-biotin. Put plainly: multiplex peptide beads, flow cytometry; no free biotin.
Experiment [8] addresses Peptide 5 …-biotin (human). The experiment is described as above.
The target in the next experiment is Peptide 2 …-biotin. The description is as above.
In the next experiment the target is Peptide 4 …-biotin. Described as above.
A further experiment concerns the target Peptide 6 …-biotin. Described as above.
The target of the next experiment is Peptide 9 …-biotin. The experiment is described as above.
The target in another experiment is Peptide 3 …-biotin. The experiment is described as above.
A further experiment deals with Peptide 7 …-biotin. The experiment is described as above.
A further experiment deals with Peptide 1 …-biotin. The description is as above.
Experiment [9] deals with Neutravidin (deglycosylated avidin) (UniProt P02701). Nature of the experiment: single-analyte, Neutravidin bead 70/60 without peptide, flow cytometry.
Experiment [10] deals with Human chorionic gonadotropin (human) (UniProt P01215). Nature of the experiment: sandwich, MAB602 capture beads, flow cytometry; hCG 0.0002 ng/mL.
For experiment [11] the target is unchanged. Put plainly: multiplex sandwich, MAB602 capture beads; hCG 4 ng/mL, no wash.
The target is the same in experiment [12]. Nature of the experiment: multiplex sandwich, MAB602 capture beads; hCG 500 ng/mL, washed.
Experiment [13] has the same target. Put plainly: multiplex sandwich, MAB602 capture beads; hCG 16 ng/mL, washed.

Sequence of UniProt P01215 (P01215 25-116, chain 1 of 2, other chains not shown): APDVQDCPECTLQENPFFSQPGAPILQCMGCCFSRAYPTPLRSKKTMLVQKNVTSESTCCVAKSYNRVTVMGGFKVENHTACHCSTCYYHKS
Sequence of UniProt P02771 (P02771 19-609 limits assumed): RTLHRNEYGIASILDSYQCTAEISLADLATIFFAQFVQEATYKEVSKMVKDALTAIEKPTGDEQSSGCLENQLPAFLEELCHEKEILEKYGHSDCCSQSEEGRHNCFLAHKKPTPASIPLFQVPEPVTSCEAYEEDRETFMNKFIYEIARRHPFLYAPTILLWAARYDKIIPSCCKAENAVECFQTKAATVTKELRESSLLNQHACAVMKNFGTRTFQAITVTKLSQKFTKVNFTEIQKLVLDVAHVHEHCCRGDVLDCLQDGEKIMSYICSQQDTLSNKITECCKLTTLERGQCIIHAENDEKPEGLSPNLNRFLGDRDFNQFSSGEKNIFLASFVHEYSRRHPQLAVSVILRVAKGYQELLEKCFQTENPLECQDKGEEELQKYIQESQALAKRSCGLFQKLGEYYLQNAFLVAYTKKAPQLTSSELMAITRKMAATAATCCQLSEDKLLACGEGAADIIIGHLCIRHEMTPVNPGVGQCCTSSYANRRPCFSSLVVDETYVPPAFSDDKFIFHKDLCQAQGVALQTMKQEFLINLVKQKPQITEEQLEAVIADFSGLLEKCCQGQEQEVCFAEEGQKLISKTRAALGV
Sequence of UniProt P02701 (P02701 25-152 limits assumed): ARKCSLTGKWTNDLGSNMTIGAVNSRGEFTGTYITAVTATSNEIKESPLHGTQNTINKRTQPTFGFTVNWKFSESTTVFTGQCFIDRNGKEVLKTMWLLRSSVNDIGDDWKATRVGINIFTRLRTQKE

With “M20077 affinity purified polyclonal anti-AFP antibody, Bodipy FL-CASE labeled”, the MIF of Fm turned out to be 1380 with Alpha fetoprotein [1], 51 in the experiment with Alpha fetoprotein [2], 47 in experiment [3] and 956 in the experiment with Alpha fetoprotein [5]. The same substance gave an MIF AVG with Alpha fetoprotein [4] of 276. In addition, in the experiment with Alpha fetoprotein [4], the MIF of FL1 is 268 and 274 and 286.

Regarding MAB 384, Bodipy FL-X labeled (antibody), the MIF of Fm in experiment [6] was 25; in experiment [7], 36; in experiment [9], 70. Besides, the MIF with Peptide 8 …-biotin came to 31; in experiment [8], 915; with Peptide 2 …-biotin, 17; with Peptide 4 …-biotin, 20; with Peptide 6 …-biotin, 32; with Peptide 9 …-biotin, 31. Besides, the results for the MIF in the experiment with Peptide 3 …-biotin, with Peptide 7 …-biotin and in the experiment with Peptide 1 …-biotin were 20, 19 and 13, respectively.

Take “AB633 affinity purified polyclonal anti-hCG antibody, Bodipy FL-CASE labeled”: the MIF of Fm is 122 and 149 in experiment [10]; 1120 in experiment [11]; 3340 in [12]; 2530 in [13].
